Experimental findings from US20030108935, “Probing binding interactions between molecules and nucleic acids by unzipping a nucleic acid molecule double helix” (published 2003) are described below.

Data set [1] relates to EcoRI restriction endonuclease. The conditions noted are these: highest Ka measured in this report; optical-trap unzipping (UFAPA); 10 mM HEPES pH 7.6, 1 mM EDTA, no Mg2+, 106-262 mM Na+, 23 C; Ka decreases with Na+ ….
Data set [2] has as its target T1, BsoBI restriction endonuclease (UniProt P70985 P70985:2-323).
T1 sequence: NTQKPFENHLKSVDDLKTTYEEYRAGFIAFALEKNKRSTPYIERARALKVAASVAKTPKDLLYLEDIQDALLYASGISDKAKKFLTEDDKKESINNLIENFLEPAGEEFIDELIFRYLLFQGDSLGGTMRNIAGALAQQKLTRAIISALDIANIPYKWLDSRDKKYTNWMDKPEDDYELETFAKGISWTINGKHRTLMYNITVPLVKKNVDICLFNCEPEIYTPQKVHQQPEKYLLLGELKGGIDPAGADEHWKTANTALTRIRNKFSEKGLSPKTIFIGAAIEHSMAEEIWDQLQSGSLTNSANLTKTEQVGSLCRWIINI
Kind of data set: optical-trap unzipping, dynamic force spectroscopy: f_beta 4.36 +/- 0.53 pN, ln(toff in s) 7.6 +/- 1.1, N=51; BsoBI 0.7 nM, 50 mM Na phosphate pH 7.0, 50 mM NaCl, 10 mM EDTA, no Mg2+, 23 C. The settings on record: tags: New England BioLabs, commercial grade, used without further purification; chain copies: 2 (stated, 72 kD dimer); label: digoxigenin and biotin (via anchoring segment and insert duplex). How it is done:
(§1) Unzipping Buffer Conditions. Experiments with BsoBI and XhoI were performed at room temperature (23° C.) in a buffer containing 50 mM sodium phosphate buffer pH 7.0, 50 mM NaCl, 0.02% Tween-20, 10 mM EDTA. To facilitate better comparisons of future EcoRI results with previously reported results, mapping and equilibrium constants studies of EcoRI were performed at room temperature (23° C.) in a buffer containing 10 mM HEPES, pH 7.6, 1 mM EDTA, 50 μM DTT, 100 μg/ml BSA, 500 μg/ml Blotting Grade Blocker (Bio-Rad) and NaCl added to produce total Na+concentrations of 106 to 262 mM. […] The Hepes buffer is similar to the buffer used by Ha et al., “Role of the Hydrophobic Effect in Stability of Site-Specific Protein-DNA Complexes,” J. Mol. Biol. 209:801-816 (1989), the entire disclosure of which is hereby incorporated by reference in its entirety, for temperature dependence studies of EcoRI binding to its site on pBR322. Because of the tendency for EcoRI to aggregate at lower ionic strengths (Jen-Jacobson et al., “Coordinate Ion Pair Formation Between EcoRI Endonuclease and DNA,” J. Biol. Chem. 258:14638-14646 (1983), the entire disclosure of which is hereby incorporated by reference in its entirety), the EcoRI mapping data were taken at 131 mM total Na+ concentration. […]

Data set [3] addresses T1, BsoBI restriction endonuclease. Put plainly: optical-trap unzipping, dynamic force spectroscopy: f_beta 4.04 +/- 0.14 pN, ln(toff in s) 4.98 +/- 0.27, N=243; BsoBI 0.7 nM, 50 mM Na phosphate pH 7.0, 50 mM. The conditions noted are these: tags: New England BioLabs, commercial grade, used without further purification; chain copies: 2 (stated, 72 kD dimer); label: digoxigenin and biotin (via anchoring segment and insert duplex). The procedure: as §1

Turning to “pBR322 EarI large fragment unzipping segment with single EcoRI site”, the Ka in data set [1] is 1e+11 M⁻¹.

B1: beta site (BsoBI/XhoI) (dsDNA)
DNA 1: AAACTCGAGAGA
DNA 2: TCTCTCGAGTTT
With B1, the binding result in data set [2] is listed as “binds”.

B2: BsoBI alpha site (dsDNA)
DNA 1: TTCCTCGGGAAT
DNA 2: ATTCCCGAGGAA
With B2, the binding result in data set [3] is reported as “binds”.
